The target in test [1] is T1, full length (FL) human gp130 over-expressed on HEK293/Stat3-luc/gp130-2X Sort cells (human, UniProt P40189 23-918).
T1 sequence: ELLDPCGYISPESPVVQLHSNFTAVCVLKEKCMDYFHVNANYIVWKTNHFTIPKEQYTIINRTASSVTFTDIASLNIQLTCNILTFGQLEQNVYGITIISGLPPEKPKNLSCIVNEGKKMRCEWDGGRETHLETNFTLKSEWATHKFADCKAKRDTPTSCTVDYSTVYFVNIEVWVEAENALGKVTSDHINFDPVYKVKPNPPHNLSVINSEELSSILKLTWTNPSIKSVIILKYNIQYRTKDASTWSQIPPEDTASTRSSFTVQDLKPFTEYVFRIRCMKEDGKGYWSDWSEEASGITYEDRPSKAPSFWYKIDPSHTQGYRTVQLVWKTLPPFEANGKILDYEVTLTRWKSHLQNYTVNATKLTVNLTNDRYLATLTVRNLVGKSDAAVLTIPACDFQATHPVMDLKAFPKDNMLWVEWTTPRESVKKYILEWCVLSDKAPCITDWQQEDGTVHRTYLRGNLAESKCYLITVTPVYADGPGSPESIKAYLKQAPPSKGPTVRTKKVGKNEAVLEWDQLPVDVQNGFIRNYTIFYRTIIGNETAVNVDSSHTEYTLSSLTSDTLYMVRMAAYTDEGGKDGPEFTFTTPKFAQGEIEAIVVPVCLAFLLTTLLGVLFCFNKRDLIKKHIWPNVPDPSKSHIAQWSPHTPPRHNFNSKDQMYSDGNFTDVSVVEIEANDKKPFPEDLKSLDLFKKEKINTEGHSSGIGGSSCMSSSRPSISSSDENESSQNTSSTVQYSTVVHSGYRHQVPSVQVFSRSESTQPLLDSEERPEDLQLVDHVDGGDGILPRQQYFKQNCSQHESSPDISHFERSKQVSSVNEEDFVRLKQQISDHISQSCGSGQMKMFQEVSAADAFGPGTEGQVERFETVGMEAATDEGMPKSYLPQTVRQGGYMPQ
The test can be described thus: FACS, 10 nM Ab, HEK293/Stat3-luc/gp130-2X Sort cells. An excerpt: (§1) In order to assess cell binding by anti-GP130 antibodies of the invention two cell lines were generated. One cell line generated was HEK293 cells stably over-expressing full length (FL) human gp130 (amino acids 1-918 of accession #P40189 with leucine at position 2 changed to valine, a natural variant) along with a luciferase reporter (Stat3-luciferase, Stat3-luc, SA Bioscience, #CLS-6028L). The cells were sorted twice using flow cytometry for high expression of gp130. It is known hereafter as HEK293/Stat3-luc/gp130-2 X Sort. IMR-32 cells (human Neuroblastoma, ATCC), were also evaluated for cell binding as these cells express gp130 endogenously and were used for bioassays. The cells used for binding were generated to stably express a luciferase reporter (Stat3-luciferase, Stat3-luc, SA Bioscience, #CLS-6028L), and are referred to hereafter as IMR-32/STAT3-Luc cells.
(§2) For the FACS analysis, 10 nM of the antibodies were used to stain 0.5×10⁶ cells/well of each cell type at 4° C. in PBS (without calcium and magnesium) containing 2% FBS for 30 minutes. IMR-32/STAT3-luc cells were incubated with 1 mg/mL mouse IgG for 30 minutes at 4° C. to block Fc receptors prior to adding the antibodies. To test whether the anti-gp130 antibody binding is specific for gp130 on the IMR-32 cells, antibodies were added to IMR-32/Stat3-luc cells with or without being pre-bound to 1000 nM of recombinant protein of the ecto-domain of human gp130 fused to myc-myc-his tag (hgp130.mmh) for 30 minutes at 25° C. […] Cells were fixed using BD CytoFix™ (Becton Dickinson, #554655) and analyzed on an IQue® (Intellicyt®) Flow Cytometer. Unstained and secondary antibody alone controls were also tested for all cell lines. The results were analyzed using ForeCyt® (IntelliCyt®) software to determine the geometric means of fluorescence for viable cells.

Test [2] has as its target T2, human gp130 expressed endogenously on IMR-32/Stat3-luc cells (human, UniProt P40189 23-918).
T2 construct: Endogenous gp130 of the human neuroblastoma line IMR-32
T2 sequence: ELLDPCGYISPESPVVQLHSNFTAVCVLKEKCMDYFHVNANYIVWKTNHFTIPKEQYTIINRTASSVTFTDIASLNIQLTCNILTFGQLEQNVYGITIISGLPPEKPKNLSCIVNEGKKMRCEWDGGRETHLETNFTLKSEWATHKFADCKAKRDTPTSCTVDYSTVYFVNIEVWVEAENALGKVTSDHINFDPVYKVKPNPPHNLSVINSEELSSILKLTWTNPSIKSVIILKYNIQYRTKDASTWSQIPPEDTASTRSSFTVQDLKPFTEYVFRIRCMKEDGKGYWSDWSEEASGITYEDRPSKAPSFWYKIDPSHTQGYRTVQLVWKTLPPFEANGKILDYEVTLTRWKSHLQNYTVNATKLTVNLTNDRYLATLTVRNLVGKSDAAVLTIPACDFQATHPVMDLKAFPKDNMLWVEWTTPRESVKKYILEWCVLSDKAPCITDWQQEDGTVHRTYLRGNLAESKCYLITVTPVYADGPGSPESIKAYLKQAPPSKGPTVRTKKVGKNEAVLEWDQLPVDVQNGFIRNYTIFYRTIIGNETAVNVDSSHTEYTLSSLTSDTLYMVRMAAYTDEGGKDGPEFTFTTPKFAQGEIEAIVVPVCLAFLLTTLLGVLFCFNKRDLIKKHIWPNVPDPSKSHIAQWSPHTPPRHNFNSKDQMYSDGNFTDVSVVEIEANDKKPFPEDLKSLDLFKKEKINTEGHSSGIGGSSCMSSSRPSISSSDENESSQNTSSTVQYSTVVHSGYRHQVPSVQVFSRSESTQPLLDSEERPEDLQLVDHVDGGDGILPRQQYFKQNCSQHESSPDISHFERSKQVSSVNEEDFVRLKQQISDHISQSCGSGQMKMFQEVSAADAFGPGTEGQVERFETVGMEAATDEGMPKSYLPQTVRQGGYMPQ
As to the kind of experiment: FACS, 10 nM Ab, IMR-32/Stat3-luc cells, no hGP130.mmh.
Text: as §1, §2
On the technique in general: A flow cytometer gives signals particle by particle.

Test [3] has as its target T3, human GP130 full length extracellular domain with C-terminal myc-myc-hexahistidine tag (human, UniProt P40189 23-619).
T3 construct: Monomeric; also called human GP130-MMH; hGP130-mmH
The test can be described thus: Luminex, antigen captured on anti-myc beads. Here is the method:
(§3) Aliquots of microspheres with immobilized anti-myc monoclonal antibodies, prepared as described above, were added individually to 1 mL of the each of these protein supernatants and to 500 uL of purified GP130 protein. The microspheres were gently mixed, incubated for two hours at 25° C., washed twice with 1 mL of DBPS, centrifuged to remove the supernatant and finally resuspended in 1 mL of DPBS buffer. Forty eight μL of anti-myc IgG coupled microspheres from individual reactions with full length human GP130 and with each of the human GP130 domain proteins were withdrawn and mixed together in 3.6 mL of PBS+20 mg/mL BSA+0.05% sodium azide (blocking buffer).
(§4) From this mixed pool, 75 μL of microspheres were plated per well on a 96 well filter plate (Millipore, Cat. No: MSBVN1250) and mixed with 25 μL of individual anti-human GP130 monoclonal antibodies (0.5 or 5 μg/mL), incubated for two hours at 25° C. and then washed twice with 200 μL of DPBS with 0.05% Tween 20 (washing buffer). To detect and quantify the amounts of bound anti-GP130 antibody levels to individual microspheres, either 100 μL of 2.5 μg/mL R-Phycoerythrin conjugated goat F(ab′)2 anti-human kappa (Southern Biotech, Cat #2063-09) in blocking buffer, was added and incubated for 30 minutes at 25° C. After 30 minutes, the samples were washed twice with 200 μL of washing buffer and resuspended in 150 μL of wash buffer. The Median Fluorescence intensity (MFI) of the microspheres was measured in a Luminex Analyzer.

Test [4] addresses T4, human GP130 delta D1 with C-terminal myc-myc hexahistidine tag (human, UniProt P40189 124-619).
T4 construct: used as CHO supernatant; also called human GP130 delta D1-MMH; GP130 Delta D1 extracellular domain
The test can be described thus: Luminex, antigen captured on anti-myc beads. How it is done: as §3, §4

The target of test [5] is T5, human GP130 delta D1-D3 with C-terminal myc-myc hexahistidine tag (human, UniProt P40189 329-619).
T5 construct: used as CHO supernatant; also called human GP130 delta D1-D3-MMH; GP130 Delta D1-D3 extracellular domain
T5 sequence (P40189 other isoform, or with tags, fused parts or gaps mutant limits assumed): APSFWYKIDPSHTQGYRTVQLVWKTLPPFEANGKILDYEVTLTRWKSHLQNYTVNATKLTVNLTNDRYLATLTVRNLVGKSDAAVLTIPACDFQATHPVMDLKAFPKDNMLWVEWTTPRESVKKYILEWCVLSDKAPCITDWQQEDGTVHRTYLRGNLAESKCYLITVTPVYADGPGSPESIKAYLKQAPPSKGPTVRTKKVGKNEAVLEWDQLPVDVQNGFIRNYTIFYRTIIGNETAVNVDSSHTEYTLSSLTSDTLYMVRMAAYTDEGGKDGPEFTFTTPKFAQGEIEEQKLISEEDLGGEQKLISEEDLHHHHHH
As to the kind of experiment: Luminex, antigen captured on anti-myc beads. Here is the method:
as §3, §4

T4 sequence (P40189 other isoform, or with tags, fused parts or gaps mutant limits assumed): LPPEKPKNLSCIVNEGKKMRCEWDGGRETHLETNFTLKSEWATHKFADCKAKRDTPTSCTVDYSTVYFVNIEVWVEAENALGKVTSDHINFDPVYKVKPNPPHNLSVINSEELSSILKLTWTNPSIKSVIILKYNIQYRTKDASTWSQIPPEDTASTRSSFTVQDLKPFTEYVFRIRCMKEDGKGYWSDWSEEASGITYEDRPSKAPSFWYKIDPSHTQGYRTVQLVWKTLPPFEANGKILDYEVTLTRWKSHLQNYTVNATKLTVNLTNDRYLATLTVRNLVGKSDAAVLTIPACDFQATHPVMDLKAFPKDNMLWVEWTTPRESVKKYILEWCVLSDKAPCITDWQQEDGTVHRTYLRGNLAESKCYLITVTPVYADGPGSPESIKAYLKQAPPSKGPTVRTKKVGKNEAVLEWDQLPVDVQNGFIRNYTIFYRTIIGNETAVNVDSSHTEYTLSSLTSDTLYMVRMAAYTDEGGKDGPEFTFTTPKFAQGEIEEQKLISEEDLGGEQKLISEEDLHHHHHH

B1: MAb16676 (antibody, V domains shown)
VH: QVQLVQSGAEVMKPGASVKVSCRASGYTFSSYDINWVRQAPGQGLEWMGWISTATGNTNYPQKVQGRVTMTTDTSTNTAYMELRSLRSDDTAVYYCTREGNSKGWLDPWGQGTLVTVSS
VL: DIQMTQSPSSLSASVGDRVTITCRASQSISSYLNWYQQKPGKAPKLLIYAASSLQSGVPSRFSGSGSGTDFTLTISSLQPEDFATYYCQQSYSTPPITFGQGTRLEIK
notes: hIgG4 isotype control used
Turning to B1, the figures for the “MFI - Normalized to Unstained Control” value in test [1] and in test [2] were 74 ratio and 9 ratio, respectively. Moreover, the “Luminex MFI signal” value in test [3] is 18100 MFI; in test [4], 364 MFI; in test [5], 686 MFI.

B2: MAb16669 (antibody, V domains shown)
VH: EVQLVESGGGLVQPGGSLRLSCAASGFTFSSYAMNWVRQAPGKGLEWVSAISGSGDSTYYTDSVKGRFTISRDNSKNTLYLQMNTLRAEDTAVYYCAKEEIVMLVGATPGWFDPWGQGTLVTVSS
VL: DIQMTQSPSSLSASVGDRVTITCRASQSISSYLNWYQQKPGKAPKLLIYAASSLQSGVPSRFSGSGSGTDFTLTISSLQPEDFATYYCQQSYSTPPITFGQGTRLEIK
notes: hIgG4 isotype control used
Consider B2, for which the “MFI - Normalized to Unstained Control” value in test [1] worked out at 53 ratio; in test [2] it was 6 ratio. In addition, the “Luminex MFI signal” value in test [3] amounted to 17600 MFI; in test [4], 12600 MFI; in test [5], 15100 MFI.

B3: MAb16664 (antibody, V domains shown)
VH: QVQLVQSGTEVKKPGSSVKVSCKASGGTFSTYPINWVRQAPGQGLEWMGGIIPIFGTASYAQKFQGRVAITTDESTSTAYMELNSLRSEDTAVYYCARERPNWGSNDYWGQGTLVTVSS
VL: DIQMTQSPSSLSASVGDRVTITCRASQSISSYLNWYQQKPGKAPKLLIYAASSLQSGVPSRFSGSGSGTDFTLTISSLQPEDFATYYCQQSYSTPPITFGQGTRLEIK
notes: hIgG4 isotype control used
B3: the “MFI - Normalized to Unstained Control” value in test [1] came out at 45 ratio; in test [2], 7 ratio. Also, the “Luminex MFI signal” value in test [3] amounted to 19300 MFI; in test [4], 442 MFI; in test [5], 419 MFI.

B4: MAb16683 (antibody, V domains shown)
VH: QVQLVESGGGLVKPGGSLRLSCAASGFTFSDYYMTWIRQTPGKGLDWVSYISSSGTNKYNADSVKGRFTISRDNAKNSLYLQMNSLRAEDTAVYYCVRDPPWGMDVWGQGTTVTVSS
VL: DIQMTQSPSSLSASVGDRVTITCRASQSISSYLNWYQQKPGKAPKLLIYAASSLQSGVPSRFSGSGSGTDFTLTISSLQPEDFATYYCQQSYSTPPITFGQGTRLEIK
notes: hIgG4 isotype control used
Take B4: the “MFI - Normalized to Unstained Control” value was determined as 75 ratio in test [1] and 9 ratio in test [2]. For the same molecule, the “Luminex MFI signal” value was determined as 15200 MFI in test [3], 12000 MFI in test [4] and 20900 MFI in test [5].

B5: MAb16665 (antibody, V domains shown)
VH: QVQLVESGGGVVQPGRSLRLACAASGFTFRSYGMHWVRQAPGKGLEWVAVIWYDGSNKYYTDSVKGRFTISRDNSKNTLYLQMNSLRAEDTAMYYCAIDKWATVTTYLFDYWGQGTLVTVSS
VL: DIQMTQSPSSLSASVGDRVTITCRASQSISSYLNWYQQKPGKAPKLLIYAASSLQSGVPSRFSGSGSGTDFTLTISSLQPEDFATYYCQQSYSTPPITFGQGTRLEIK
notes: hIgG4 isotype control used
Turning to B5, the “MFI - Normalized to Unstained Control” value in test [1] came out at 55 ratio; in test [2], 5 ratio. The “Luminex MFI signal” value in test [3] turned out to be 16300 MFI; in test [4] it was 119 MFI; in test [5] it was 116 MFI.

B6: MAb16614 (antibody, V domains shown)
VH: QVQLVESGGGVVQPGGSLRLSCAASGFTFSTYDIHWVRQAPGKGLEWVAVISFDGSNRNYGDSVKGRFTISRDNSDNTLFLEMNNLRFEDTAVYYCAKEGYGVDFQHWGQGTLVTVSS
VL: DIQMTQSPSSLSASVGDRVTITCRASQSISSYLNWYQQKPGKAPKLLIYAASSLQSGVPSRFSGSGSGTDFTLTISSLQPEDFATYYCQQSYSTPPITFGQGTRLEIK
notes: hIgG4 isotype control used
With B6, the “MFI - Normalized to Unstained Control” value in test [1] worked out at 94 ratio; in test [2], 7 ratio. For the same molecule, the entries for the “Luminex MFI signal” value in test [3], in test [4] and in test [5] were 18700 MFI, 2900 MFI and 56 MFI, respectively.

(Values after patent US20240158497A1 (published 2024).)
